Results taken from publication PMC10514341, “Organisation of the orthobunyavirus tripodal spike and the structural changes induced by low pH and K^+ during entry” (Nature Communications, 2023).

Biological target: the molecule itself
Experiment: cryo-EM structure; cryo-electron tomography and subtomogram averaging (PEET, C3 symmetry) of glycoprotein spikes on purified BUNV virions, pH 7.3/no K+, 2 hr at 37 °C; tripod average ~16 Å, floor average ~13 Å (GS-FSC); X-ray head/stalk structures and an AlphaFold Gn-Gc model fitted into the maps

B1: Bunyamwera virus (BUNV) glycoprotein Gn (natural protein, UniProt P04505 17-302, looked up)
chain: SPVITRCFHGGQLIAERKSQTSISEFCIKDDVSMLKSEIVYTKNDTGIFGHSKVFRHWTITDWKACNPVVTAGGSINVIEVDKNLNLVTRNYVCTGDCTITVDRKNAQIIFQTDKLNHFEVTGTTISTGWFKSKASVTLDRTCEHIKVSCGKKTLQFHACFKQHMSCVRFLHRSILPGSMAISICQNIELIIITILALCIFIIMIILTKTYICYVLIPVFMPIAFAYGWAYNRSCKKCTCCGLAYHPFTNCGSYCVCGSKFETSDRMRMHRESGLCQGFKSLRVAR
modifications: N-linked glycan at N60
notes: Glycoprotein Gn of Bunyamwera virus, cut from the M segment polyprotein (Gn-NSm-Gc); ectodomain 17-205; membrane-anchored in the virion envelope; Native Gn in the envelope of purified virions; also called BUNV Gn
  stoichiometry N: 3

B2: Bunyamwera virus (BUNV) glycoprotein Gc (natural protein)
chain: EEDCWKNEELKEDCVGPLIAPKDCTDKDHKTYLSEASLLATAKKITQVDAENVEILGKTMESAIRVIERQKTYHRMHLLEAVFLNKHCDYYKMFEHNSGYSQVKWRMMIKTQHFDICALQANSPFCAQCIADNSCAQGSWEFDTHMNSTYSSKVDNFKHDFSLFLRIFEAAFPGTAYVHLLTNIKEKKPYQAVSMIEKIKKKFPNNKLLIGYLDFGKYLLGLSHASTYELQQRQLDKLYQPTELTRSGGQQTSLANSVVGQATKECKKYKDVSCLSPRFGIPLEDLISCCDQPNYNIYKKPKKVYKAHDKEETWCINDQHCLVDFVPAEADTVEKLKPMKCWLVDPGKNDDVYSIAIKTCRVVDKGVCTVNSQKWNIIKCDSGPLYYSDHIPGEDTGNDIGHYCVSAGCKTDRYPINPDVVTDCVWEFTSRKSQYIGKISMQSLEDYEKALTDRLTHTLETYSFAPLENLPHIKPVYKYITAQGVENSDGIEGAFITASIPAAGGTSIGYNVRSKDGFPLLDLIVFVKSAVIKSTYNHIYDTGPTISINTKHDEHCTGQCPSNIEHEANWLTFSQERTSRWGCEEFGCLAVNTGCVFGSCQDVIRPETKVYRKAVDEVVILTVCITYPGHTFCTEINAIEPKITEEIELQFKTVDTKTLPYIVAVNNHKLYSGQINDLGTFGQMCGNVQKTNSSILGTGTPKFDYTCHGASRKDIIVRRCYNNNFDSCKLLKEETQLIFNDDHDTITVYNTNHLIGELAIKLILGDIQYKLFTETLDLQIDAKCVGCPDCFESYSCNFQIVSNIDTICSLEGPCDTFHNRISIKAMQQNYAVKLSCQKDPRPSGTFKICNREYTVVFHTVAKDDKIEINVGDQTSFIKEKDDRCKTWLCRVRDEGISVIFEPIKAFFGSYFSIFFYIIVVVVVGFLIIYIFMPMFMKLKEVLKANEKLYLQEIKQK
modifications: N-linked glycan at N624
notes: Glycoprotein Gc of Bunyamwera virus, cut from the M segment polyprotein (Gn-NSm-Gc); ectodomain 478-1382; head, stalk and floor (fusion domain) regions; membrane-anchored in the virion envelope; Native Gc in the envelope of purified virions; also called BUNV Gc
  stoichiometry N: 3
